From PMC13635753, “Mechanism of NanR transcriptional activation of sialic acid metabolism in Streptococcus pneumoniae” (Nucleic Acids Research, 2025)
Positions count from the first letter of the chain named. Names and notes keep the numbering of the source. Values joined by “and” are separate entries in the source; they are usually repeats but may differ in a detail not shown here. Equal entries are not always repeated.

Experiments:
SpNanR [1] = molecular target: T1, SpNanR (Streptococcus pneumoniae, UniProt A0A0H2ZPE9 1-283); assay: MST; protein up to 5000 nM; MST: 20 mM Tris-HCl pH 8.0, 300 mM NaCl, 0.05% Tween-20, 20 C, 20 nM FAM-DNA; AUC: 50 nM FAM-DNA, 0.019-5 uM SpNanR, buffer not in the material; conditions: protein: recombinant; tags: none; chain copies: 2; label: 5'-FAM on sense strand
SpNanR [2] = molecular target: T1, SpNanR; assay: MST; range over three sites; MST: 20 mM Tris-HCl pH 8.0, 300 mM NaCl, 0.05% Tween-20, 20 C, 20 nM FAM-DNA; AUC: 50 nM FAM-DNA, 0.019-5 uM SpNanR, buffer not in the material; conditions: protein: recombinant; tags: none; chain copies: 2; label: 5'-FAM on sense strand
[3] = molecular target: the molecule itself; assay: SAXS with in-line size exclusion chromatography; SpNanR without N-acetylmannosamine-6-phosphate
[4] = molecular target: the molecule itself; assay: AUC; sedimentation velocity, SpNanR 4.3–227.7 μM without N-acetylmannosamine-6-phosphate, 20 mM Tris–HCl pH 8.0, 300 mM NaCl, 20°C, 42 000 rpm; weight-averaged s fitted to a dimer–tetramer self-association model; constant of: tetramer to dimers
[5] = molecular target: the molecule itself; assay: AUC; sedimentation velocity, SpNanR 0.27–153.5 μM with 2 mM N-acetylmannosamine-6-phosphate, 20 mM Tris–HCl pH 8.0, 300 mM NaCl, 20°C, 42 000 rpm; constant of: tetramer to dimers
[6] = molecular target: the molecule itself; assay: AUC; sedimentation velocity of SpNanR variants and wild type at 15 μM, without N-acetylmannosamine-6-phosphate
[7] = molecular target: the molecule itself; assay: AUC; sedimentation velocity of SpNanR variants and wild type at 15 μM, with N-acetylmannosamine-6-phosphate
SpNanR [8] = molecular target: T1, SpNanR; assay: fluorescence-detection AUC (sedimentation velocity); no effector; Hill n 2.3; MST: 20 mM Tris-HCl pH 8.0, 300 mM NaCl, 0.05% Tween-20, 20 C, 20 nM FAM-DNA; AUC: 50 nM FAM-DNA, 0.019-5 uM SpNanR, buffer not in the material; conditions: protein: recombinant; tags: none; chain copies: 2; label: 5'-FAM on sense strand
SpNanR R56A = SpNanR R56A (Streptococcus pneumoniae, UniProt A0A0H2ZPE9 1-283, R56A); assay: MST; protein up to 5000 nM; MST: 20 mM Tris-HCl pH 8.0, 300 mM NaCl, 0.05% Tween-20, 20 C, 20 nM FAM-DNA; AUC: 50 nM FAM-DNA, 0.019-5 uM SpNanR, buffer not in the material; conditions: protein: recombinant; tags: none; chain copies: 2; label: 5'-FAM on sense strand
SpNanR T18A = SpNanR T18A (Streptococcus pneumoniae, UniProt A0A0H2ZPE9 1-283, T18A); assay: as above; conditions: protein: recombinant; tags: none; chain copies: 2; label: 5'-FAM on sense strand
SpNanR R67A = SpNanR R67A (Streptococcus pneumoniae, UniProt A0A0H2ZPE9 1-283, R67A); assay: as above; conditions: protein: recombinant; tags: none; chain copies: 2; label: 5'-FAM on sense strand

B1: nanE G4T (dsDNA)
DNA 1: TCTTAAAGTACTTTTAGA
DNA 2: TCTAAAAGTACTTTAAGA
binding result (SpNanR [1]): no binding

B2: cryptic site downstream of siaA operon (site 4) (dsDNA)
DNA 1: TCTGAAACTACTTTCAGA
DNA 2: TCTGAAAGTAGTTTCAGA
Kd (SpNanR [2]): ~603 nM

B3: nanA recognition sequence (site 1) (dsDNA)
DNA 1: TCTGAAACTACTTTCAAA
DNA 2: TTTGAAAGTAGTTTCAGA
Kd (SpNanR [2]): ~603 nM

B4: nanE A10C (dsDNA)
DNA 1: TCTGAAAGTCCTTTTAGA
DNA 2: TCTAAAAGGACTTTCAGA
binding result (SpNanR [1]): no binding

B5: Streptococcus pneumoniae NanR (SpNanR), wild type (natural protein, UniProt A0A0H2ZPE9 1-283, looked up)
chain: MDKPDIATIIDSHFEEMTDLEQEIARYFLQAETITDDLSSQQVTQKLHISQAALTRFAKKCGFTGYREFIFQYQHQAENQANQVSKHSPLTKRVLRSYSNMREQTQDLIDEIQLERIAQLIEDAERIYFFGTGSSGLVAREMKLRFMRLGVVCEALTDQDGFAWTTSIMDENCLVLGFSLSGSTPSILDSLLDAKEMGAKTVLFTSVPNKNSQTYTETVLVATHSQPSYIQRISAQLPMLFFIDLIYAYFLEINRESKEKIFNSYWENKKLNGYRRQKRVRKS
notes: RpiR family transcriptional regulator NanR of Streptococcus pneumoniae, recombinant full length; intact mass 32 611 Da; Self-associates between dimer and tetramer; cloned into pET30ΔSE; no tag; also called SpNanR^WT; apo-SpNanR
stoichiometry N [3]: 4 and 2 | Kd [4]: 97000 nM | Kd [5]: < 200 nM

B6: SpNanR^R148A (natural protein)
chain: B5 chain with R148A
notes: NanR of Streptococcus pneumoniae with R148A; Variant of the full-length recombinant SpNanR; source: E. coli BL21(DE3), recombinant
stoichiometry N [6]: 2

B7: SpNanR^D160A (natural protein)
chain: B5 chain with D160A
notes: NanR of Streptococcus pneumoniae with D160A; Variant of the full-length recombinant SpNanR; source: E. coli BL21(DE3), recombinant
stoichiometry N [6]: 2 | stoichiometry N [7]: 4

B8: nanE recognition sequence (site 2), FAM (dsDNA)
DNA 1: TCTGAAAGTACTTTTAGA
DNA 2: TCTAAAAGTACTTTCAGA
Kd (SpNanR [8]): 476 ± 75 nM | binding result (SpNanR R56A): no binding | binding result (SpNanR T18A): no binding | binding result (SpNanR R67A): no binding | Kd (SpNanR [2]): ~603 nM
